According to paper PMC9372435, “Peptide Centric Vβ Specific Germline Contacts Shape a Specialist T Cell Response” (Frontiers in Immunology, 2022):

test system: tetramer+ CD8 T cells; test: Immunization with peptide-loaded dendritic cells, expansion of tetramer+ CD8 T cells; format: in vivo; conditions: F1 (H2^bxd) mice, 5x10^6 dendritic cells loaded with 1μM peptide s.c., spleen 7 days post immunization, versus numbers in naive mice
Experimental: Bone marrow-derived dendritic cells from male mice were incubated with 1μM of peptide for 3 hours at 37°C. Cells were washed and 5x10^6 peptide-loaded dendritic cells were injected subcutaneously into naive F1 (H2^bxd) female mice. Mice were sacrificed 7 days post immunization. Peptide sequences: HF10: HPGSVNEFDF; ROP5: YAVANYFFL; GRA4: SPMNGGYYM.
Figure 1 Characteristics of the L^d-HF10 specific T cell response. (A) T. gondii-specific CD8 T cells were quantified by pMHC tetramer staining and flow cytometry of splenocytes at different time points after intraperitoneal infection of F1 (B6xB6.C) mice. Fold change between naive and expanded T cells was calculated using the average number of tetramer+ cells in each population in naive mice (GRA6 = 74.4, ROP5: 654.9, GRA4: 1330). (B) Flow cytometric analysis of size (FSC or forward scatter) or expression of activation and effector markers (CD71, KLRG1, and CD25) on gated tetramer^+ splenic CD8 T cells at day 5 post infection. (C) Mice were immunized with bone marrow-derived dendritic cells loaded with the indicated peptides. Expanded tetramer^+ CD8 T cells were quantified by tetramer staining of splenocytes 7 days post immunization (open circles). Numbers of tetramer^+ CD8 T cells in the spleen were quantified by tetramer enrichment of naïve mice and were used to calculate the fold expansion of each antigen-specific T cell population (closed circles). Statistical significance of differences in fold change between the three groups was calculated using Mann-Whitney tests. GRA6 vs. GRA4: p < 0.0001, GRA6 vs. ROP5: p < 0.0001, GRA4 vs. ROP5: p=0.0002. Statistical significance between tetramer+ T cell populations was calculated by two-way ANOVA. The interaction p-values are as follows: GRA6 vs. GRA4: p < 0.0001, GRA6 vs. ROP5: p < 0.0001, GRA4 vs. ROP5: p=0.99. (D) The frequency of Vβ2 usage amongst L^d-HF10 specific splenic CD8 T cells tetramer enriched from naïve mice or found in T. gondii-infected mice was determined by flow cytometry. […] Clonal diversity in L^d-HF10 specific CD8 T cells was analyzed using the TCRdist algorithm ([40]). […]

Substance | Fold expansion of tetramer+ CD8 T cells [x]
HPGSVNEFDF [HF10, 10mer peptide from the C-terminus of T. gondii protein GRA6, presented by MHC-I L^d] | 4000
SPMNGGYYM [GRA4] | 50
YAVANYFFL [ROP5] | 300

molecular target: TG6 TCR, acid-base leucine zipper stabilized, soluble, biotinylated (mouse); test: SPR; conditions: not given

Substance | Kd [nM]
soluble L^d-HF10 with alanine at peptide position 9 (peptide-MHC) | 170000
soluble L^d-HF10 with alanine at peptide position 4 (peptide-MHC) | 2400
soluble L^d-HF10 with alanine at peptide position 5 (peptide-MHC) | 1850
soluble L^d-HF10 (HF10 fused via a linker to β2m, disulfide-trapped), wild-type peptide (peptide-MHC) | 420
soluble L^d-HF10 with alanine at peptide position 1 (peptide-MHC) | 1020
soluble L^d-HF10 with alanine at peptide position 2 (peptide-MHC) | 1840
soluble L^d-HF10 (L^d α1-α3 with HF10 fused via a linker to β2m, disulfide-trapped) (peptide-MHC) | 400

test system: TG6 TCR; test: Surface plasmon resonance of L^d-HF10 (WT and alanine variants) binding to immobilised TG6 TCR; parameters: species or system mouse; conditions: SPR, BIAcore SA chip, ~2000 RU biotinylated TG6 TCR; soluble L^d-peptide injected; two-state reaction fit
Source text: We used two systems to generate L^d-HF10. For biophysical and crystallographic studies of pMHC, we produced soluble L^d-HF10 by baculovirus-infected insect cell expression ([26]). The DNA encoding L^d (α1-α3) and HF10 (or alanine substituted variants) fused via a linker to β2m were cloned into pbac plasmid under polyhedrin and p10 promoters to produce secreted soluble Ld-HF10 from Hi5 insect cells. In this construct, L^d Tyr 84 and Gly at peptide p12 position from the linker that attaches β2m to pHF10 were mutated to cysteines to form a disulfide bond ([27]). Secreted L^d-HF10 in insect cell medium was captured with immunoaffinity chromatography and further purified by GE Healthcare FPLC Superdex 200 10/300 GL size exclusion column. For the crystallography of the TCR/peptide/MHC ternary complex, we produced the wild type L^d variable region (α1-α2). L^d (α1-α2) was expressed in E. coli BL21 as an inclusion body, solubilized in 8M urea, and refolded with synthetic HF10 peptide (HPGSVNEFDF, ordered from Peptide 2.0 Inc.) ([28], [29]). Refolded L^d-HF10 was further purified with a HiLoad Superdex 200 26/600 size chromatography column.
TG6 α and β TCR chains were also produced by both baculovirus insect cell and bacterial expression systems. […]
Approximately 2000 RU of biotinylated TG6 TCR was captured in the flow cells of a BIAcore streptavidin (SA) BIAsensor chip. Various concentrations of insect cell-produced L^d-HF10 and its mutated variant peptides were injected into the sensor chip and the association and dissociation kinetics were recorded and then corrected for the fluid phase SPR signal using the data from the biotinylated mouse BDC2.5 TCR. Kinetics was analyzed with BIAcore BIAEval 4 software. […]
(A) Corrected surface plasmon resonance (SPR) data for the binding of various concentrations of soluble L^d-HF10 to ~2000 RU of biotinylated TG6 TCR immobilized in flow cell on SA sensor chip. […] Upregulation of surface CD25 and CD44 in response to TCR stimulation was measured by flow cytometry. […]

Substance | ka2 [s⁻¹] | kd1 [s⁻¹] | kd2 [s⁻¹]
HPGSVNEFDF [HF10, 10mer peptide from the C-terminus of T. gondii protein GRA6, presented by MHC-I L^d] | 0.002 | 0.014 | 0.005

molecular target: H2-L^d on TAP-deficient RMA-S.L^d cells; test: flow cytometry on cells (RMA-S.Ld surface Ld stabilisation); conditions: read at the highest peptide concentration, log [peptide in µM] = 0; parent: est. 670; read off a plot

Substance | response [MFI]
HF10 peptide p6A | 440
HF10 peptide p3A | 690
HF10 peptide p1A | 550
HF10 peptide p8A | 120
HF10 peptide p5A | 400
HF10 peptide p4A | 720
HF10 peptide p2A | 100
HF10 peptide p7A | 670
HF10 peptide p9A | 430
HF10 peptide p10A | 60
